Test results published in patent publication US12715909 (ENTHERA S R L, dated 2026).

T1: human IGFBP1 (human, UniProt P08833 26-259)
T1 construct: Bought protein
T1 sequence (looked up): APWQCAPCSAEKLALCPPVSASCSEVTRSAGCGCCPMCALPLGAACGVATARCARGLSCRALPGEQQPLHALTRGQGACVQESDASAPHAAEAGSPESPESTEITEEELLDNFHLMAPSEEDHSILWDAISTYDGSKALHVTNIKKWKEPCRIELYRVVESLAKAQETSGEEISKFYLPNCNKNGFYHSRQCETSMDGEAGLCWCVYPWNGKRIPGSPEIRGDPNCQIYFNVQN

T2: human IGFBP2 (human, UniProt P18065 37-325, limits assumed)
T2 construct: Bought protein
T2 sequence (looked up): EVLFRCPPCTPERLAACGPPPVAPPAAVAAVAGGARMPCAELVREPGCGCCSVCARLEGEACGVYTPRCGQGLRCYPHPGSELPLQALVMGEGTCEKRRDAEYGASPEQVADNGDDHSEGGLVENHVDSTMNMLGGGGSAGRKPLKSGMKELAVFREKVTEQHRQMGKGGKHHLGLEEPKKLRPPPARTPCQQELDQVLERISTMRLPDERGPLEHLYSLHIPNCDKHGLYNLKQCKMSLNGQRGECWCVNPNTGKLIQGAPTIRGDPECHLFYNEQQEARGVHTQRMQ

T3: human IGFBP4 (human, UniProt P22692 22-258)
T3 construct: Bought protein
T3 sequence (looked up): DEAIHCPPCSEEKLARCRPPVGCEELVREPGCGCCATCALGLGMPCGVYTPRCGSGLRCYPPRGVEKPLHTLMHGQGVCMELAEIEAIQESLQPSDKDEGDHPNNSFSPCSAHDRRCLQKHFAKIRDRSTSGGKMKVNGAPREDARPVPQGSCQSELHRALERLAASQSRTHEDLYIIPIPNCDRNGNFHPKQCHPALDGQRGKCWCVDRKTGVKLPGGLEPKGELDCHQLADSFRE

T4: human IGFBP6 (human, UniProt P24592 28-240, limits assumed)
T4 construct: Bought protein
T4 sequence (looked up): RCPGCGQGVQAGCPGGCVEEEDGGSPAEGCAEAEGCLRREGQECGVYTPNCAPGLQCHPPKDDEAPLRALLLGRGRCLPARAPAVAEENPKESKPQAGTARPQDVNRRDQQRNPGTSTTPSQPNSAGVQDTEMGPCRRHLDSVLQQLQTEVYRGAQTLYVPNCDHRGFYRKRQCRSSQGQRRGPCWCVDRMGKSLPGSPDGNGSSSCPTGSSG


How the values were obtained:
Test in all cases: ELISA, scFv, secondary screening
human IGFBP5 = target: T5, human IGFBP5 (human, UniProt P24593 21-272)
T5 construct: Bought protein; in BLI it was in solution; also called hIGFBP-5
Description: (§1) At the end of the discovery process, each selection output was screened for antigen-specific antibodies and the binding characteristics of monoclonal antibody clones was analysed. For this purpose, 3072 single colonies were used for scFv antibody production. […] 192 of those ELISA positive clones were selected for a secondary screening. For that purpose, a second batch of scFv were produced and tested on a broader panel of antigens: Streptavidin+biotinylated human IGFBP5, Streptavidin+biotinylated murine IGFBP5, Streptavidin, BSA, Human IGFBP1, Human IGFBP2, Human IGFBP3, Human IGFBP4, Human IGFBP5 and Human IGFBP6. […] Binding to human IGFBP1, human IGFBP2, human IGFBP3, human IGFBP4 and human IGFBP6 was not detected. […] The scFv DNA sequence was amplified by PCR and cloned into YUMAB's mammalian scFv-Fc expression vector, resulting in a genetic fusion of the scFv with a human IgG4 Fc. Bacterial clones with a correctly cloned scFv gene were used for isolation of transfection grade DNA. The DNA was used for the transient transfection of HEK cells which produced and secreted the antibody into the culture medium. The antibodies were purified by affinity chromatography (Protein A) and re-buffered in PBS. The protein concentration was determined by UV/VIS spectrometry and purity was checked by Coomassie staining. 13 of the 15 antibodies could be successfully produced in the scFv-Fc format.

mouse IGFBP5 = target: T6, mouse IGFBP5 (mouse, UniProt Q07079 20-271)
T6 construct: Bought protein; in solution in BLI; also called mIGFBP-5; murine IGFBP5
Description: as §1

human IGFBP1 = target: T1, human IGFBP1
Description: as §1

human IGFBP2 = target: T2, human IGFBP2
Description: as §1

human IGFBP3 = target: T7, human IGFBP3 (human, UniProt P17936 28-291)
T7 construct: Bought protein
Description: as §1

human IGFBP4 = target: T3, human IGFBP4
Description: as §1

human IGFBP6 = target: T4, human IGFBP6
Description: as §1

T7 sequence (P17936 28-291 limits assumed): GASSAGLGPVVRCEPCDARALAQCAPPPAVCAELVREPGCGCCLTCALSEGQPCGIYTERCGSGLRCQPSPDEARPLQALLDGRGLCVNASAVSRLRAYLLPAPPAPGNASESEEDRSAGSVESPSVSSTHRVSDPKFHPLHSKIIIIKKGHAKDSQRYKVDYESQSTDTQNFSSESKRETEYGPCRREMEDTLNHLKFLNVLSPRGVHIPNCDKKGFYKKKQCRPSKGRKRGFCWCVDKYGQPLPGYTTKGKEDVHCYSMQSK
T6 sequence (Q07079 20-271 limits assumed): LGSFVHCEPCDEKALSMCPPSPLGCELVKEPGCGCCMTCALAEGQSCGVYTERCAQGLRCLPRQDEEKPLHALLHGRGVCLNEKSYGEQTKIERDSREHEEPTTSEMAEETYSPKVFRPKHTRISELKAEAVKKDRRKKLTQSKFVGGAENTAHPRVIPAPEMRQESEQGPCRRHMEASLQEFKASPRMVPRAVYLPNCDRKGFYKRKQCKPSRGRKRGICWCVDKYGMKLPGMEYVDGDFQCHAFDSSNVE
T5 sequence (P24593 21-272 limits assumed): as the sequence (Q07079 20-271 limits assumed) above, with G87R, T90V, V116I, V157I, P159S, F183L, A245T counted along it

Binder	binding result (human IGFBP5)	binding result (mouse IGFBP5)	binding result (human IGFBP1)	binding result (human IGFBP2)	binding result (human IGFBP3)	binding result (human IGFBP4)	binding result (human IGFBP6)
F04 scFv (scFv, V domains shown, scFv as screened by ELISA) VH: not shown VL: SSELTQDPSVSVALGQTVTITCQGDSVRKYYTNWYQQKPGQAPILVLYGKNYRPSGIPDRFSGSTSGDTAYLTITGAQAEDAADYYCHSRDTSDIHLNVFGTGTKVTVL	binds	binds	no binding	no binding	no binding	no binding	no binding
C11 scFv (scFv, V domains shown, scFv as screened by ELISA) VH: EVQLVESGGGVVQPGRSLRLSCAASGFTFSSYGMHWVRQAPGKGLEWVAVISYDGSNKYYADSVKGRFTISRDNSKNTLYLQMNSLRAEDTAVYYCARGDYSDTSGTDFFQHWGQGTQVTVSS VL: not shown	binds	binds	no binding	no binding	no binding	no binding	no binding
C12 scFv (scFv, V domains shown, scFv as screened by ELISA) VH: QVQLVQSGAEVKKPGSSVKVSCKASGGTFSSYAISWVRQAPGQGLEWMGGIIPIFGTANYAQKFQGRVTITADESTSTAYMELSSLRSEDTAVYYCATLGRELSFDYWGQGTLVTVSS VL: DIVMTQSPSSLSASVGDRVTITCRASQSISSYLNWYQQKPGKAPKLLIYAASSLQSGVPSRFSGSGSGTDFTLTISSLQPEDFATYYCQQSYSESWTFGQGTTVDIK	binds	binds	no binding	no binding	no binding	no binding	no binding
E02 scFv (scFv, V domains shown, scFv as screened by ELISA) VH: QMQLVQSGAEVKKPGSSVKVSCKASGGTFSSYAISWVRQAPGQGLEWMGGIIPIFGTANYAQKFQGRVTITADESTSTAYMELSSLRSEDTAVYYCATMSVAGPSISFDYWGQGTLVTVSS VL: DIQMTQSPSSLSASVGDRVAIPCRASQSISSYLNWYQQKPGKAPKLLIYAASSLQRGVPSRFSGSGSGTDFTLTISSLQPEDFATYYCQETYSNLWTFGQGTKVEIK	binds	binds	no binding	no binding	no binding	no binding	no binding
C02 scFv (scFv, V domains shown, scFv as screened by ELISA) VH: QVQLVQSGAEVKKPGASVKVSCKASGYTFTSYGISWVRQAPGQGLEWMGWISAYNGNTNYAQKLQGRVTMTTDTSTSTAYMELRSLRSDDTAVYYCARGRGVIDYWGQGTLVTVSS VL: not shown	binds	binds	no binding	no binding	no binding	no binding	no binding
F05 scFv (scFv, V domains shown, scFv as screened by ELISA) VH: QVQLVQSGAEVKKPGASVKVSCKASGYTFTSYGISWVRQAPGQGLEWMGWISAYNGNTNYAQKLQGRVTMTTDTSTSTAYMELRSLRSDDTAVYYCARGRGSFDPWGQGTLVTVSS VL: not shown	binds	binds	no binding	no binding	no binding	no binding	no binding
B11 scFv (scFv, V domains shown) VH: QVQLVQSGAEVKKPGSSVKVSCKASGGTFSSYAISWVRQAPGQGLEWMGGIIPIFGTANYAQKFQGRVTITADKSTSTAYMELSSLRSEDTAVYYCARNVRLPGWFDPWGQGTLVTVSS VL: not shown	binds	binds	no binding	no binding	no binding	no binding	no binding
D12 scFv (scFv, V domains shown, scFv as screened by ELISA) VH: not shown VL: ETTLTQSPGTLSVSPGDRATLSCRASQSLSADYLAWYQQKPGQAPRLLIYGASTRATGIPARFSGSGSGTEFTLTVSSLQSEDFAVYYCQQNDNWPYTFGQGTKLEIK	binds	binds	no binding	no binding	no binding	no binding	no binding
E05 scFv (scFv, V domains shown, scFv as screened by ELISA) VH: EVQLVESGGGLVQPGGSLKLSCAASGFTFSGYGMNWVRQAPGKGLEWVSYVGSSSSTIYYADSVKGRFTISRDNANNSLYLQMNSLRAEDTAVYYCARGLGGNWGQGTMVTVSS VL: QPGLTQPPSASGAPGQRVTISCSGSRSNIGSNYVHWYQQLPGTAPKLIIYRNDQRPSGVPARFSASKSGTSASLAISGLRSEDEADYYCAAWDDGLSVLFGGGTKLTVL	binds	binds	no binding	no binding	no binding	no binding	no binding
B09 scFv (scFv, V domains shown, scFv as screened by ELISA) VH: QVQLVQSGAEVKKPGASVKVSCKASGYTFTSYGISWVRQAPGQGLEWMGWISAYNGNTNYAQKLQGRVTMTTDTSTSTAYMELRSLRSDDTAVYYCARDLAVGTHGDYWGQGTLVTVSS VL: QSALTQPASVSGSPGQSITISCTGTSSDVGGYNYVSWYQQHPGKAPKLMIYEVSNRPSGVSNRFSGSKSGNTASLTISGLQAEDEADYYCSSYTSSSTLEVVFGGGTKLTVL	–	–	no binding	no binding	no binding	no binding	no binding
E03 scFv (scFv, V domains shown, scFv as screened by ELISA) VH: QVQLVQSGAEVKKPGSSVKVSCKASGGTFSSYAISWVRQAPGQGLEWMGGITPIFGTANYAQKFQGRVTITADESTSTAYMELSSLRSEDTAVYYCARAGILTGYYFDYWGQGTLVTVSS VL: NFMLTQPHSVSESPGKTVTISCTRSSGSIASNYVQWYQQRPGSSPTTVIYEDNQRPSGVPDRFSGSIDSSSNSASLTISGLKTEDEADYYCQSYDSSNRPWVFGGGTKLTVL	binds	binds	no binding	no binding	no binding	no binding	no binding
D10 scFv (scFv, V domains shown, scFv as screened by ELISA) VH: QVQLVQSGAEVKKPGASVKVSCKASGYTFTSYGISWVRQAPGQGLEWMGWISAYNGNTNYAQKLQGRVTMTTDTSTSTAYMELRSLRSDDTAVYYCARDRYLGWFDPWGQGTLVTVSS VL: QSALTQPASVSGSPGQSITISCTGTSSDVGGYNYVSWYQQHPGKAPKLMIYEVSNRPSGVSNRFSGSKSGNTASLTISGLQAEDEADYYCSSYTSSSTPYVFGTGTKLTVL	binds	binds	no binding	no binding	no binding	no binding	no binding
